Article PMC2573054

Molecular target: His-Rac2 (hexahistidine-tagged Rac2^G12V, aa 2-177) (human) (UniProt P15153)
Test: SPR

Kd: 6 µM
kon: 385 M⁻¹ s⁻¹
Substance: PLCβ2 (PH-C2) (domain or fragment)
